Laboratory results published in US20090117111A1.

Biological target: FcγRIIIa on NK cells of V/F donors (both aa158 allotypes, V and F) (human)
Assay: cell-based or functional assay

ED50 for lysis of the Daudi cell line (ADCC, purified NK cells, V/F donors) [nM] | Substance
0.002 | monoclonal antibody CHIR-12.12
0.021 | rituximab (Rituxan) (antibody)
